From doi:10.1101/2023.08.23.554525 (bioRxiv, 2023)

What was measured:
Settings in all cases: both partners purified
[1] = target: H1 hemagglutinin (A/New Caledonia/20/1999(H1N1)), recombinant HA trimer used for electron microscopy (influenza A virus A/New …, UniProt Q6WG00); assay: cryo-EM structure
[2] = target: T1, biotinylated H1 A/NewCaledonia/20/1999 (NC99) HA ectodomain (Influenza A virus A/New …, UniProt Q6WG00, strain, biotin (site not stated)); assay: BLI; Octet Red384; […]; Fab at 1600, 400, 100 and 25 nM; PBS + 1% BSA; 180 s association, 300 s dissociation
[3] = target: biotinylated H1 A/Michigan/45/2015 (MI15) HA ectodomain (Influenza A virus A/Michigan/45/2015 …, UniProt A0A1J0CXU0, strain, biotin (site not stated)); assay: as above
[4] = target: T1, biotinylated H1 A/NewCaledonia/20/1999 …; assay: […] (MSD) binding assay; […]

B1: 1-1-1F05 Fab (Fab, V domains shown)
VH: QVQLQESGPGLVKPSATLSLTCTLSGGSLSTHYWSWIRQPPGKGLEYIGNIHYSGSTNYNPSLRSRVTISVGTSKNQFSLKLTSVTAADTAVYYCARDAPYSDFLSGVETGWFDPWGQGTLVIVSS
VL: EIVMTQSPATLSVSPGERATLSCRASQSVSSNLAWYQQKPGQAPRLLIYGASTRATGIPARFSGSGSGTDFTLTISSLQSEDFAVYSCQQYNNWPWTFGQGTKVEIK
notes: source: Expi293, transfected, IgG purified (Protein A); Fab by papain digestion, SEC
[1]
  binding result: binds

B2: 2-2-1G06 Fab (Fab, V domains shown)
VH: QVQLRESGPGLVKPSQTLSLTCTVSGDSISNGGLYWNWIRQRPGRGLEWIGYIYYNGVTTYNPSLRSRIAISLETAKNQLSLRLSSVSAADTAIYYCAREGWVPDYGGRNYYLDFWGQGTLVTVSS
VL: DIQMTQSPSSLSASVGDRVTITCRASHNIQNFLNWYQQKPGKAPKLLIYAASTLQSGVPSRFSGSGSRTDFTLTISSLQPEDFAAYYCQQSYGLPRTFGQGTRLEIK
[2]
  binding result: binds
[3]
  binding result: binds
[1]
  binding result: binds

B3: 2-2-1G06 monoclonal antibody (IgG1) (antibody, V domains shown)
VH: B2 VH
VL: B2 VL
notes: IgG1; copies: 2 + 2
[4]
  binding result: binds

B4: 1-1-1E04 Fab (Fab, V domains shown)
VH: QVQLVQSGAQLRKPGSSVTVSCKASGDTFNSYSIHWVRQAPGQGLEWMGRIIPVFGMTHYAQRFRGRITVSADKSTRTAYMELTSLTSADTAMYYCARDGGDKFHSSGHFETNQGYFDHWGQGALVTVSS
VL: QSVLTQPPSVSGAPGQRVTVSCTGSSSNLGATYEVHWYQQFPGTAPKLLIYGSTNRPSGVPERFSGSKSGTSASLTITGLQAEDEADYYCQSYDTSLRGFYVFGTGTKVTVL
notes: Parent IgG1
[1]
  binding result: binds
